Laboratory results: the supplement of paper PMC11246515
± gives the standard deviation of the averaged measurements.

Experiment: total protein half-life in vivo (active degradation + dilution); higher = more stable protein
[1] = E. coli NCM3722 delta-clpP delta-lon delta-hslV, growth: N-lim chemostat, doubling time 6 h
[2] = E. coli NCM3722 delta-hslV, growth: N-lim chemostat, doubling time 6 h
[3] = E. coli NCM3722 delta-lon, growth: N-lim chemostat, doubling time 6 h
[4] = E. coli NCM3722 delta-smpB, growth: N-lim chemostat, doubling time 6 h
[5] = wild type E. coli NCM3722, growth: C-lim chemostat, doubling time 3 h
[6] = wild type E. coli NCM3722, growth: C-lim chemostat, doubling time 6 h
[7] = wild type E. coli NCM3722, growth: N-lim chemostat, doubling time 6 h
[8] = wild type E. coli NCM3722, growth: N-lim chemostat, doubling time 12 h
[9] = wild type E. coli NCM3722, growth: P-lim chemostat, doubling time 6 h
[10] = E. coli NCM3722 delta-clpP, growth: N-lim chemostat, doubling time 6 h
[11] = wild type E. coli NCM3722, growth: C-lim chemostat, doubling time 12 h
[12] = wild type E. coli NCM3722, growth: P-lim chemostat, doubling time 12 h

| Sequence | total protein half-life in vivo [1] [h] | total protein half-life in vivo [2] [h] | total protein half-life in vivo [3] [h] | total protein half-life in vivo [4] [h] | total protein half-life in vivo [5] [h] | total protein half-life in vivo [6] [h] | total protein half-life in vivo [7] [h] | total protein half-life in vivo [8] [h] | total protein half-life in vivo [9] [h] | total protein half-life in vivo [10] [h] | total protein half-life in vivo [11] [h] | total protein half-life in vivo [12] [h] |
| --- | --- | --- | --- | --- | --- | --- | --- | --- | --- | --- | --- | --- |
| MKAFWRNAALLAVSLLPFSSANALALQAKQYGDFDRYVLALSWQTGFCQSQHDRNRNERDECRLQTETTNKADFLTVHGLWPGLPKSVAARGVDERRWMRFGCATRPIPNLPEARASRMCSSPETGLSLETAAKLSEVMPGAGGRSCLERYEYAKHGACFGFDPDAYFGTMVRLNQEIKESEAGKFLADNYGKTVSRRDFDAAFAKSWGKENVKAVKLTCQGNPAYLTEIQISIKADAINAPLSANSFLPQPHPGNCGKTFVIDKAGY | 5.86 ± 0.29 | 6.73 ± 0.69 | 6.91 ± 0.17 | 5.96 ± 0.5 | 2.91 ± 0.23 | 6.59 ± 1.8 | 5.72 ± 0.6 | 12.8 ± 0.28 | 5.74 ± 0.09 | – | – | – |
| MKALHFGAGNIGRGFIGKLLADAGIQLTFADVNQVVLDALNARHSYQVHVVGETEQVDTVSGVNAVSSIGDDVVDLIAQVDLVTTAVGPVVLERIAPAIAKGQVKRKEQGNESPLNIIACENMVRGTTQLKGHVMNALPEDAKAWVEEHVGFVDSAVDRIVPPSASATNDPLEVTVETFSEWIVDKTQFKGALPNIPGMELTDNLMAFVERKLFTLNTGHAITAYLGKLAGHQTIRDAILDEKIRAVVKGAMEESGAVLIKRYGFDADKHAAYIQKILGRFENPYLKDDVERVGRQPLRKLSAGDRLIKPLLGTLEYGLPHKNLIEGIAAAMHFRSEDDPQAQELAALIADKGPQAALAQISGLDANSEVVSEAVTAYKAMQ | 5.84 ± 2 | 5.32 ± 0.44 | 4.91 ± 0.1 | 4.6 ± 0.39 | – | 6.18 ± 0.63 | 4.86 ± 0.35 | 8.39 ± 0.13 | 6.02 ± 0.068 | 4.85 ± 0.21 | 10.8 ± 1.2 | 11.6 ± 0.34 |
| MKALTARQQEVFDLIRDHISQTGMPPTRAEIAQRLGFRSPNAAEEHLKALARKGVIEIVSGASRGIRLLQEEEEGLPLVGRVAAGEPLLAQQHIEGHYQVDPSLFKPNADFLLRVSGMSMKDIGIMDGDLLAVHKTQDVRNGQVVVARIDDEVTVKRLKKQGNKVELLPENSEFKPIVVDLRQQSFTIEGLAVGVIRNGDWL [P0A7C2] | 3.01 ± 0.14 | 3.18 ± 0.11 | 3.9 ± 0.1 | 3.03 ± 0.12 | 1.91 ± 0.16 | 3.21 ± 0.11 | 3.25 ± 0.28 | 4.784 ± 0.043 | 2.68 ± 0.22 | 2.31 ± 0.15 | 4.65 ± 0.17 | 4.77 ± 0.42 |
| MKAPGLPADQQFFADLFSGLVLNPQLLGRVWFASQPASLPVGSLCIDFPRLDIVLRGEYGNLLEAKQQRLVEGEMLFIPARAANLPVNNKPVMLLSLVFAPTWLGLSFYDSRTTSLLHPARQIQLPSLQRGEGEAMLTALTHLSRSPLEQNIIQPLVLSLLHLCRSVVNMPPGNSQPRGDFLYHSICNWVQDNYAQPLTRESVAQFFNITPNHLSKLFAQHGTMRFIEYVRWVRMAKARMILQKYHLSIHEVAQRCGFPDSDYFCRVFRRQFGLTPGEYSARFQG | 5.03 | – | – | – | – | 1.83 | – | – | – | – | – | – |
| MKATKLVLGAVILGSTLLAGCSSNAKIDQLSSDVQTLNAKVDQLSNDVNAMRSDVQAAKDDAARANQRLDNMATKYRK | 5.79 ± 1.4 | 5.95 ± 0.4 | – | 5.03 ± 0.051 | 3.11 ± 0.35 | 4.92 ± 0.76 | 5.81 ± 0.7 | 11.7 ± 3.1 | 5.66 ± 0.3 | 6.38 ± 0.67 | 11.2 ± 3.2 | 12.1 ± 0.34 |
| MKDERRPICEVVAESIERLIIDGVLKVGQPLPSERRLCEKLGFSRSALREGLTVLRGRGIIETAQGRDSRVARLNRVQDTSPLIHLFSTQPRTLYDLLDVRALLEGESARLAATLGTQADFVVITRCYEKMLAASENNKEISLIEHAQLDHAFHLAICQASHNQVLVFTLQSLTDLMFNSVFASVNNLYHRPQQKKQIDRQHARIYNAVLQRLPHVAQRAARDHVRTVKKNLHDIELEGHHLIRSAVPLEMNLS [P0ACL5] | 4.767 ± 0.025 | – | 1.21 | 1.37 ± 0.029 | 1.3 ± 0.1 | 2.15 ± 0.25 | 1.21 ± 0.14 | 1.68 ± 0.18 | 1.56 ± 0.22 | 1.35 | 2.35 ± 0.16 | 2.65 ± 0.72 |
| MKDVVIVGALRTPIGCFRGALAGHSAVELGSLVVKALIERTGVPAYAVDEVILGQVLTAGAGQNPARQSAIKGGLPNSVSAITINDVCGSGLKALHLATQAIQCGEADIVIAGGQENMSRAPHVLTDSRTGAQLGNSQLVDSLVHDGLWDAFNDYHIGVTAENLAREYGISRQLQDAYALSSQQKARAAIDAGRFKDEIVPVMTQSNGQTLVVDTDEQPRTDASAEGLARLNPSFDSLGSVTAGNASSINDGAAAVMMMSEAKARALNLPVLARIRAFASVGVDPALMGIAPVYATRRCLERVGWQLAEVDLIEANEAFAAQALSVGKMLEWDERRVNVNGGAIALGHPIGASGCRILVSLVHEMVKRNARKGLATLCIGGGQGVALTIERDE | 5.29 ± 0.14 | – | – | – | 1.35 ± 0.2 | 2.66 ± 0.38 | – | – | 0.858 | – | 3.57 ± 0.4 | 2 ± 0.37 |
